{
  "source": "patent US8257949B2",
  "about": "“Self-priming polysialyltransferase” (National Research Council of Canada, priority 2006, dated 2012)",
  "molecules": {"B1": {"name": "PST-16: fusion of Cst-II from C. jejuni OH4384 and the E. coli PST protein, SEQ ID NO: 15 (protein)", "chain": "MKKVIIAGNGPSLKEIDYSRLPNDFDVFRCNQFYFEDKYYLGKKCKAVFYNPSLFFEQYYTLKHLIQNQEYETELIMCSNYNQAHLENENFVKTFYDYFPDAHLGYDFFKQLKDFNAYFKFHEIYFNQRITSGVYMCAVAIALGYKEIYLSGIDFYQNGSSYAFDTKQKNLLKLAPNFKNDNSHYIGHSKNTDIKALEFLEKTYKIKLYCLCPNSLLANFIELAPNLNSNFIIQEKNNYTKDILIPSSEAYGKFSKNINFGGGHMIFDASLKKLRKLFVNPIGFFRDSWFFNSKNKAEELLSPLKIKSKNIFIISNLGQLKKAESFVQKFSKRSNYLIVLATEKNTEMPKIIVEQINNKLFSSYKVLFIPTFPNVFSLKKVIWFYNVYNYLVLNSKAKDAYFMSYAQHYAIFVYLFKKNNIRCSLIEEGTGTYKTEKENPVVNINFYSEIINSIILFHYPDLKFENVYGTYPILLKKKFNAQKFVEFKGAPSVKSSTRIDNVIHKYSITRDDIIYANQKYLIEHTLFADSLISILLRIDKPDNARIFIKPHPKEPKKNINAIQKAIKKAKCRDIILITEPDFLIEPVIKKAKIKHLIGLTSSSLVYAPLVSKRCQSYSIAPLMIKLCDNDKSQKGINTLRLHFDILKNFDNVKILSDDITSPSLHDKRIFLGE"}, "B2": {"name": "PST-17: truncated CstII from OH4384 fused to the Neisseria Pst, SEQ ID NO:2 (protein)", "chain": "MKKVIIAGNGPSLKEIDYSRLPNDFDVFRCNQFYFEDKYYLGKKCKAVFYNPSLFFEQYYTLKHLIQNQEYETELIMCSNYNQAHLENENFVKTFYDYFPDAHLGYDFFKQLKDFNAYFKFHEIYFNQRITSGVYMCAVAIALGYKEIYLSGIDFYQNGSSYAFDTKQKNLLKLAPNFKNDNSHYIGHSKNTDIKALEFLEKTYKIKLYCLCPNSLLANFIELAPNLNSNFIIQEKNNYTKDILIPSSEAYGKFSKNINFGGGHMLKKIKKALFQPKKFFQDSMWLTTSPFYLTPPRNNLFVISNLGQLNQVQSLIKIQKLTNNLLVILYTSKNLKMPKLVHQSANKNLFESIYLFELPRSPNNITPKKLLYIYRSYKKILNIIQPAHLYMLSFTGHYSYLISIAKKKNITTHLIDEGTGTYAPLLESFSYHPTKLERNLIGNNLNIKGYIDHFDILHVPFPEYAKKIFNAKKYNRFFAHAGGISINNNIANLQKKYQISKNDYIFVSQRYPISDDLYYKSIVEILNSISLQIKGKIFIKLHPKEMGNNYVMSLFLNMVEINPRLVVINEPPFLIEPLIYLTNPKGIIGLASSSLIYTPLLSPSTQCLSIGELIINLIQKYSMVENTEMIQEHLEIIKKFNFINILNDLNGVISNPLFKTEETFETLLKSAEFAYKSKNYFQAIFYWQLASKNNITLLGHKALWYYNALYNVKQIYKMEYSDIFYIDNISVDFHSKDKLTWEKIKHYYYFADNRIGRDR"}},
  "type_in_all_cases": "biochemical",
  "key": {"[1]": {"experiment": "Comparison of PST-16 and PST-17 sialic acid polymerization, CE analysis", "details": "for formation of long sialic acid polymers: CE analysis; for amount of polysialic acid relative to all other sialylated species: Lac-FCHASE acceptor, FIG. 5", "excerpt": "The dotted line represents PST-16; the solid line represents PST-17. Arrows indicate the positions of Lactose (lac), GD3, GQ4, and polysialylated products conjugated to more than four sialic acid residues. The amount of polysialic acid relative to all other sialylated species ([…] sialic acid moieties) is about 50% in for each reaction.\nSialylation of the starting material: (▪), +1 NeuAc; ( ? ), +2 NeuAc; (□), +3 NeuAc; ( ? ), 4 NeuAc; ( ? ), >4 NeuAc (▪). 6A is PST-16 with Lac-FCHASE substrate. 6B is PST-17 with Lac-FCHASE substrate. 6C is PST-16 with T-Ag-FCHASE substrate. 6D is PST-17 with T-Ag-FCHASE substrate.\nA fusion of Cst-II from C. jejuni OH4384 and the E. coli PST protein (PST-16) was generated and compared to the and N. meningitidis fusion (PST-17). Enzymatic activities of the two fusion proteins were determined and compared. […] See, e.g., FIGS. 5 and 6."}, "[2]": {"experiment": "Activity of self-priming poly-sialyltransferase proteins in E. coli supernatant or pellet, CE assay", "parameters": "Specific Activity: unit not given here", "details": "for Activity / Specific Activity: 24 hour sample; for Percent GM3: FCHASE-GM3 found in the product", "protocol": "The self-priming poly-sialyltransferase proteins were expressed in E. coli cells and growth conditions for optimal protein expression were determined. Similar results were obtained for all three fusions; therefore, results are shown only for the PST-17 fusion. Cells were grown at 20° C., 25° C. and 30° C. for four different time periods. Aliquots of 1.5 mL were harvested, sonicated, and then centrifuged at 10,000×g for 10 mm. Expression of the self-priming poly-sialytransferase proteins increased with time at all […] temperatures.\nEnzymatic activities of the self-priming poly-sialytransferase proteins were confirmed. Only the 24 hour samples of FIG. 4 were assayed Assays were done using the following reaction mixture: 0.5 mM FCHASE-Lac, 50 mM NaHEPES pH 7.5, 10 mM MgCl2, 5 mM CMP-NeuAc and 50% volume bacterial supernatant or pellet Reactions were incubated at 37° C. for 10 min and analyzed by capillary electrophoresis. […] For example, in the PST-17 20° C. supernatant, 9% of the substrate is converted into product, but most product is FCHASE-GM3. In contrast, in the PST-21 20° C. supernatant, 7% of the substrate is converted into product with 68% FCHASE-GM3, the remaining products containing longer sialic acid polymers. […] The highest levels of activity are shown in bold font."}, "[3]": {"experiment": "Poly-sialylation of glycopeptide acceptor by PST17, TLC and CE analysis", "protocol": "The control reaction lacked CMP-sialic acid. […] Disialylated products and products with more than 45 sialic acid residues are indicated with arrows.\nThe poly-sialyltransferase of PST17 was tested using a partially glycosylated IFNα2b[GalNAc-Gal-NeuAc]-FCHASE glycopeptide. Assay conditions were as follows: 50 mM NaHEPES pH 7.5, 5 mM MnCl2, 5 mM MgCl2, 5 mM CMP-NeuAc, 0.0684 mM IFNα2b[GalNAc-Gal-NeuAc]-FCHASE glycopeptide. Reactions were incubated at 37° C. for 1 hour and 2 hours. […] After 1 hour incubation at 37° C. there is 49.9% conversion to sialylated product and after 2 hours there is 62.5% conversion to sialylated product. […] A glycopeptide acceptor was also a very good acceptor for the PST-17 fusion protein, and long PSA polymers could be seen in CE analysis of those reactions. (Data not shown.) The glyco-peptide acceptors, NH2-VGVT[GalNAc-α-]ETP-COOH (SEQ ID NO:32), were obtained from Sussex Research Laboratories (Ottawa, Canada) and then N-terminally labelled with FCHASE as described for the amino-phenyl glycosides."}, "[4]": {"experiment": "PST-17 time course on disaccharide acceptor", "details": "single addition of enzyme, fixed donor concentration", "protocol": "A comparison of acceptors substrates was performed using Lactose, N-acetyllactosamine, and Gal-β-1,3-GalNAc-α (T-Ag) disaccharide acceptors. […] See, e.g., FIG. 7."}, "[5]": {"experiment": "Polysialic acid synthesis, fusion protein versus mixture of unfused parent enzymes", "details": "T-Ag-containing glycopeptides", "excerpt": "FIG. 9 provides a comparison of polysialic acid synthesis activity using a mixture of unfused Cst-II and PST-13 enzymes or the PST-17 fusion enzyme. The sialic acid acceptor was the glycopeptide interferon α2b-[TAg]-FCHASE. FIG. 9A is the unfused enzyme mixture: CST-81 and PST-13. FIG. 9B is the PST-17 fusion enzyme. Figure legend: IFNα2b-[TAg]-FCHASE (Starting material) (▪); +1 NeuAc ( ? ); +2 NeuAc (□); +3 NeuAc ( ? ); +4 NeuAc ( ? ); >4 NeuAc (▪).\nIn order to evaluate whether the fusion protein functions more efficiency than the unfused parent enzymes mixed together, we performed experiments where we controlled the stoichiometry of the individual sialyltransferases. The stoichiometry of the mixtures was calculated using gel densitometry. Care was taken not to overload the gels so that the protein bands were not saturated. Gels were stained with SYPRO Orange and protein was quantitated with software provided with Imager system. Reactions contained 4 μM enzyme based on the percentage present in the separate preparations.\nSee, e.g., FIG. 9. Although less striking, similar results were obtained using a mono-sialylated T-Ag-glycopeptide (S-T-Ag-glycopeptide) acceptor also. See, e.g., FIG. 10."}},
  "data": [
    {"molecule": "B1", "values": [
      {"measurement": "consumption of the acceptor", "setting": "[1]", "value": "consumed completely"},
      {"measurement": "formation of long sialic acid polymers", "setting": "[1]", "value": "did not detect formation of long sialic acid polymers"},
      {"measurement": "amount of polysialic acid relative to all other sialylated species", "setting": "[1]", "value": "about 50%"}
    ]},
    {"molecule": "B2", "values": [
      {"measurement": "formation of long sialic acid polymers", "setting": "[1]", "value": "formation of long polymers happens from the earliest time points"},
      {"measurement": "amount of polysialic acid relative to all other sialylated species", "setting": "[1]", "value": "about 50%"},
      {"measurement": "substrate converted into product", "setting": "[2]; 20° C. supernatant, 37° C. for 10 min", "value": 9, "unit": "%"},
      {"measurement": "Activity", "setting": "[2]; 20° C., P (pellet)", "value": 3.270, "unit": "mU/mL"},
      {"measurement": "Specific Activity", "setting": "[2]; 20° C., P (pellet)", "value": 8.959},
      {"measurement": "Percent GM3", "setting": "[2]; 20° C., P (pellet)", "value": 98, "unit": "%"},
      {"measurement": "Activity", "setting": "[2]; 20° C., S (supernatant)", "value": 5.570, "unit": "mU/mL"},
      {"measurement": "Specific Activity", "setting": "[2]; 20° C., S (supernatant)", "value": 2.637},
      {"measurement": "Percent GM3", "setting": "[2]; 20° C., S (supernatant)", "value": 88, "unit": "%"},
      {"measurement": "Activity", "setting": "[2]; 25° C., P (pellet)", "value": 9.329, "unit": "mU/mL"},
      {"measurement": "Specific Activity", "setting": "[2]; 25° C., P (pellet)", "value": 11.945},
      {"measurement": "Percent GM3", "setting": "[2]; 25° C., P (pellet)", "value": 59, "unit": "%"},
      {"measurement": "Activity", "setting": "[2]; 25° C., S (supernatant)", "value": 8.192, "unit": "mU/mL"},
      {"measurement": "Specific Activity", "setting": "[2]; 25° C., S (supernatant)", "value": 3.378},
      {"measurement": "Percent GM3", "setting": "[2]; 25° C., S (supernatant)", "value": 67, "unit": "%"},
      {"measurement": "Activity", "setting": "[2]; 30° C., P (pellet)", "value": 13.355, "unit": "mU/mL"},
      {"measurement": "Specific Activity", "setting": "[2]; 30° C., P (pellet)", "value": 15.228},
      {"measurement": "Percent GM3", "setting": "[2]; 30° C., P (pellet)", "value": 51, "unit": "%"},
      {"measurement": "Activity", "setting": "[2]; 30° C., S (supernatant)", "value": 3.976, "unit": "mU/mL"},
      {"measurement": "Specific Activity", "setting": "[2]; 30° C., S (supernatant)", "value": 1.893},
      {"measurement": "Percent GM3", "setting": "[2]; 30° C., S (supernatant)", "value": 58, "unit": "%"},
      {"measurement": "conversion to sialylated product", "setting": "[3]; 1 hour incubation at 37° C.", "value": 49.9, "unit": "%"},
      {"measurement": "conversion to sialylated product", "setting": "[3]; 2 hours at 37° C.", "value": 62.5, "unit": "%"},
      {"measurement": "sialic acid residues on products", "setting": "[3]; CE analysis, FIG. 8", "value": "more than 45"},
      {"measurement": "Lac-FCHASE consumed", "setting": "[4]", "value": "essentially all"},
      {"measurement": "T-Ag material consumed", "setting": "[4]", "value": 72, "unit": "%"},
      {"measurement": "polysialic acid product relative to the combination of unfused parent enzymes", "setting": "[5]", "value": "four times as much"},
      {"measurement": "polysialic acid product (PSA)", "setting": "[5]; 4 μM enzyme", "value": 17, "unit": "%"}
    ]}
  ]
}
